Reference: patent US20200299375A1 (TILLOTTS PHARMA, published 2020)

B1: 17-22-B03-sc08 (scFv)
scFv: MDIQMTQSPSSLSASVGDRVTITCQASQSISSYLAWYQQKPGKAPKLLIYKASTLASGVPSRFSGSGSGTDFTLTISSLQPEDFATYYCQCTYYEPSYVFRAFGGGTKLTVLGGGGGSGGGGSGGGGSGGGGSEVQLVESGGGLVQPGGSLRLSCKASGIDFSAGYDMCWVRQAPGKGLEWIACIDSRREESDYASWAKGRFTISKDSSKNTVYLQMNSLRAEDTAVYYCARGGYGGDGVDGAFDPWGQGTLVTVSS
notes: Humanized scFv, CDR-grafted light chain and structural-grafted heavy chain (CDR/STR); also called 17-22-B03-sc08 (CDR/STR); domain shuffled variant
B2: 17-22-B03-sc02 (scFv)
scFv: MDIQMTQSPSSLSASVGDRVTIKCQASQSISSYLAWYQQKPGKAPKLLIYKASTLASGVPSRFSGSGSGTEFTLTISDLEPADFATYYCQCTYYEPSYVFRAFGGGTKLTVLGGGGGSGGGGSGGGGSGGGGSEVQLVESGGGLVQPGGSLRLSCKASGIDFSAGYDMCWVRQAPGKGLEWIACIDSRREESDYASWAKGRFTISKDSSKNTVYLQMNSLRAEDTAVYYCARGGYGGDGVDGAFDPWGQGTLVTVSS
notes: Humanized scFv, structural graft (STR); also called 17-22-B03-sc02 (STR); structural graft
B3: 17-22-B03-sc12 (scFv)
scFv: MDIQMTQSPSSLSASVGDRVTITCQASQSISSYLAWYQQKPGKAPKLLIYKASTLASGVPSRFSGSGSGTDFTLTISSLQPEDFATYYCQSTYYEPSYVFRAFGGGTKLTVLGGGGGSGGGGSGGGGSGGGGSEVQLVESGGGLVQPGGSLRLSCKASGIDFSAGYDMCWVRQAPGKGLEWIACIDSRREESDYASWAKGRFTISKDSSKNTVYLQMNSLRAEDTAVYYCARGGYGGDGVDGAFDPWGQGTLVTVSS
notes: Humanized scFv, CDR(C90S)/STR design; also called 17-22-B03-sc12 (CDR(C90S)/STR)
B4: recombinant human TNFβ (ligand, UniProt P01374 35-205, looked up)
chain: LPGVGLTPSAAQTARQHPKMHLAHSTLKPAAHLIGDPSKQNSLLWRANTDRAFLQDGFSLSNNSLLVPTSGIYFVYSQVVFSGKAYSPKATSSPLYLAHEVQLFSSQYPFHVPLLSSQKMVYPGLQEPWLHSMYHGAAFQLTQGDQLSTHTDGIPHLVLSPSTVFFGAFAL

What was measured:
[1] = molecular target: T1, recombinant human TNFα (human, UniProt P01375 77-233); assay: SPR (MASS-1), TNFα immobilised by amine coupling, scFv injected 45 to 1.4 nM
T1 construct: also called tumor necrosis factor alpha; TNFαtrimer
Method: (§1) In a second step, for the best performing scFvs, Single Injection Cycle Kinetics (SiCK) were measured from a single injection cycle by simultaneously injecting six analyte samples at different concentrations into each of the eight parallel channels in the MASS-1 system. […] The apparent dissociation (kd) and association (kₐ) rate constants and the apparent dissociation equilibrium constant (KD) were calculated with the MASS-1 analysis software (Analyzer, Sierra Sensors) using one-to-one Langmuir binding model and quality of the fits was monitored based on Chi², which is a measure for the quality of the curve fitting. The smaller the value for the Chi² the more accurate is the fitting to the one-to-one Langmuir binding model. For affinity screenings, results were deemed valid if the Chi² was below 10 for the concentration analyzed. In cases where several scFv concentrations were analyzed, results were deemed valid if the average Chi^t over all the concentrations tested was below 10.

[2] = molecular target: T2, Rhesus monkey TNFα (Rhesus monkey (Macaca mulatta), UniProt P48094 77-233); assay: cell-based or functional assay
[3] = molecular target: T3, recombinant Cynomolgus monkey TNFα (Cynomolgus monkey (Macaca fascicularis), UniProt P79337 77-233); assay: cell-based or functional assay
[4] = molecular target: T1, recombinant human TNFα; assay: cell-based or functional assay
[5] = molecular target: B4; assay: competition ELISA, coated scFv, biotinylated TNFα, unlabeled TNFβ or TNFα as competitor
Method: (§2) For this purpose, the scFvs were coated on a 96-well Maxisorp ELISA plate at a concentration of 1 μg/mL. […] To control precision of the response, the dose-response curves were analyzed in duplicate.

[6] = molecular target: T1, recombinant human TNFα; assay: inhibition ELISA, biotinylated human TNFα (960 pM) on coated TNFRII-Fc, scFv varied
Method: (§3) For the first inhibition ELISA, the extracellular domain of TNFRI fused to the Fc region of human IgG (R&D Systems, Cat. No. 372-RI) was coated on a 96-well Maxisorp ELISA at a concentration of 0.5 μg/mL. For the second inhibition ELISA, the extracellular domain of TNFRII fused to the Fc region of human IgG (R&D Systems, Cat. No. 726-R2) was coated at a concentration of 2 μg/mL. All subsequent steps were identical for both assays.

[7] = molecular target: T1, recombinant human TNFα; assay: inhibition ELISA, biotinylated human TNFα (960 pM) on coated TNFRI-Fc, scFv varied
Method: as §3

[8] = molecular target: T2, Rhesus monkey TNFα; assay: SPR (MASS-1), TNFα immobilised by amine coupling, scFv injected 45 to 1.4 nM
Method: as §1

[9] = molecular target: T3, recombinant Cynomolgus monkey TNFα; assay: as above
Method: as §1

[10] = molecular target: T2, Rhesus monkey TNFα; assay: SPR, TNFα immobilised, scFv injected
[11] = molecular target: T1, recombinant human TNFα; assay: inhibition ELISA: biotinylated human TNFα pre-incubated with the scFv, binding to coated TNFRII-Fc detected with streptavidin-HRP [panel 17-22-B03-sc12]
Method: as §3

[12] = molecular target: T1, recombinant human TNFα; assay: inhibition ELISA: biotinylated human TNFα pre-incubated with the scFv, binding to coated TNFRI-Fc detected with streptavidin-HRP [panel 17-22-B03-sc12]
Method: as §3

[13] = molecular target: B2; assay: competition ELISA, coated scFv, biotinylated TNFα (75 ng/mL), unlabeled TNFβ varied
Method: as §2

[14] = molecular target: B1; assay: as above
Method: as §2

[15] = molecular target: B3; assay: as above
Method: as §2

T2 sequence (P48094 77-233 limits assumed): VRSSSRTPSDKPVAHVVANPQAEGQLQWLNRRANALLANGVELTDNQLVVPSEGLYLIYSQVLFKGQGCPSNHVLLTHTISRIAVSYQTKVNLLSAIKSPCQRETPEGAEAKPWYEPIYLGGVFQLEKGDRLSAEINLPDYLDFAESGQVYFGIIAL
T3 sequence (P79337 77-233 limits assumed): as the sequence (P48094 77-233 limits assumed) above, with L37V counted along it
T1 sequence (P01375 77-233 limits assumed): as the sequence (P48094 77-233 limits assumed) above, with T44R, N72T, L138R counted along it

Binder | Kd [1] | koff [1] | kon [1] | Species-specificity IC50 [ng/mL], L929 assay, rhesus TNFα [2] | Species-specificity IC50 [ng/mL], L929 assay, cyno TNFα [3] | Potency (L929 assay), rel. IC50 (IC50 Infliximab/IC50 scFv, ng/mL) [4] | Potency (L929 assay), rel. IC90 (IC90 Infliximab/IC90 scFv, ng/mL) [4] | Species-specificity IC50 [ng/mL], L929 assay, human TNFα [4] | Target selectivity, rel. IC50 of TNFβ vs TNFα [5] | IC50 [6] | rel. IC50 (IC50 Infliximab/IC50 scFv), blocking of TNF-TNFRII interaction [6] | rel. IC90 (IC90 Infliximab/IC90 scFv), blocking of TNF-TNFRII interaction [6] | IC50 [7] | rel. IC50 (IC50 Infliximab/IC50 scFv), blocking of TNF-TNFRI interaction [7] | rel. IC90 (IC90 Infliximab/IC90 scFv), blocking of TNF-TNFRI interaction [7] | Kd [8] | koff [8] | kon [8] | Kd [9] | koff [9] | also measured
B1 | 0.061 nM | 6.8e-05 s⁻¹ | 1.1e+06 M⁻¹ s⁻¹ | 0.4 ng/mL | 0.5 ng/mL | 26 ratio | 26.6 ratio | 0.4 ng/mL | > 10000 fold | 0.0353 µg/mL | 2.8 ratio | 2.7 ratio | 0.0212 µg/mL | 2.3 ratio | 2.5 ratio | – | – | – | – | – | –
B2 | 0.052 nM | 5.9e-05 s⁻¹ | 1.1e+06 M⁻¹ s⁻¹ | 0.3 ng/mL | 0.6 ng/mL | 23.7 ratio | 29.4 ratio | 0.5 ng/mL | > 10000 fold | 0.0711 µg/mL | 1.4 ratio | 1.8 ratio | 0.0334 µg/mL | 1.5 ratio | 1.4 ratio | 0.15 nM | 0.00011 s⁻¹ | 710000 M⁻¹ s⁻¹ | 0.05 nM | 6e-05 s⁻¹ | kon [9]: 1.2e+06 M⁻¹ s⁻¹; fold difference in affinity against human TNFα [10]: ~3 fold
B3 | 0.048 nM | 4e-05 s⁻¹ | 830000 M⁻¹ s⁻¹ | 0.9 ng/mL | 0.8 ng/mL | 13.4 ratio | 11.7 ratio | 0.6 ng/mL | > 10000 fold | – | 2.1 ratio | – | – | 1.5 ratio | – | 0.24 nM | 0.0002 s⁻¹ | 830000 M⁻¹ s⁻¹ | 0.07 nM | 5.2e-05 s⁻¹ | kon [9]: 750000 M⁻¹ s⁻¹; IC50 (read off the curve) [11]: ~0.03 µg/mL; IC50 (read off the curve) [12]: ~0.03 µg/mL
B4 | – | – | – | – | – | – | – | – | – | – | – | – | – | – | – | – | – | – | – | – | IC50 [13]: > 1250 µg/mL; IC50 [14]: > 1250 µg/mL; IC50 [15]: > 1250 µg/mL
